In article PMC6404586:

Assays:
C3d (human) [1] = target: C3d (human) (UniProt P01024); test: SEC; CIP and C3d loaded separately or mixed in equimolar concentration onto a Superdex column; MW from a calibration curve
C3b (human) = C3b (human) (UniProt P01024); test: ELISA; 100 ng of C3, C3b or C3d coated; increasing concentrations of CIP; anti-CIP antibody; apparent Kd as reciprocal of fitted Ka
C3d (human) [2] = target: C3d (human) (UniProt P01024); test: as above
complement C3 (human) = test: as above
C3d (human) [3] = target: C3d (human) (UniProt P01024); test: SPR; BIAcore X100; C3d covalently immobilised on CM5 chip (250 response units); CIP 0.0390-5 μM flowed; PBS with 0.005% Tween 20; 22°C; 1:1 Langmuir model; apparent Kd

Chain of UniProt P01024 (P01024 1002-1303): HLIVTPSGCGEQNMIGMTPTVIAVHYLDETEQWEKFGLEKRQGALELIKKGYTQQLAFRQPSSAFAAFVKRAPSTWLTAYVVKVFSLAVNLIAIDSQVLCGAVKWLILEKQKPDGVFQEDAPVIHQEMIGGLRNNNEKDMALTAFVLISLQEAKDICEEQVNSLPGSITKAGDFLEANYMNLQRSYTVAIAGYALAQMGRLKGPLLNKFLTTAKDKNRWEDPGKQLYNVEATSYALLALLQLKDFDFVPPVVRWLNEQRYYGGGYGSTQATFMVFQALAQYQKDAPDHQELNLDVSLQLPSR

In the case of “complement interfering protein (CIP) (natural protein)”, the stoichiometry N (C3d (human) [1]) is reported as 1, the Kd (C3b (human)) is reported as 82.4 nM and the Kd (C3d (human) [2]) is reported as 76 nM. For the same substance, the Kd (complement C3 (human)) was 84.8 nM, the Kd (C3d (human) [3]) was 79 nM and the koff (C3d (human) [3]) was 0.00085 s⁻¹. For the same substance, the kon (C3d (human) [3]) was 10800 M⁻¹ s⁻¹.
